Laboratory results taken from patent US9289468B2, “Fusion protein comprising circularly permuted form of trail/Apo2L, coding gene and use thereof” (Beijing Sunbio Biotech Co. Ltd., priority 2011, dated 2016).

Columns and labels:
[1] = test system: human multiple myeloma cell RPMI 8226; test: Morphological observation of induced apoptosis (MGG staining); assay type: cell-based; settings: 200 ng/ml, 3 h
Procedure: FIG. 3. The morphological change of the apoptosis of human multiple myeloma cell RPMI 8226 induced by NCPT-1.M1. The cells were incubated with NCPT-1.M1 (200 ng/ml) for 3 h and then prepared as smears before MGG staining.
The RPMI 8226 cells (ATCC) were cultured in cell culture flasks until logarithmic growth phase, collected by centrifugation, resuspended with complete medium (10% FBS-RPMI1640) at 1×10^6/well, added into 6-well cell culture plate (Costar). The NCPT-1.M1 was diluted with complete medium, added to a final concentration of 200 ng/ml, incubated at 37° C. in 5% CO2 incubator for 3 h. The cells were collected, prepared as smears, fixed with methanol before May-Grünwald-Giemsa (MGG, May-Grünwald stain, commercial available from Beijing ZhongYe HengYuan Chemicals, Giemsa stain, commercial available from Solarbio) staining.

H460 cells = test: Time-effect relationship in killing lung cancer cell line (phase contrast morphology); assay type: cell-based, human; settings: 50 ng/ml
Procedure: FIG. 1. Observation of the killing effect of NCPT-1.M1 on H460 cells under phase contrast microscope.
At 37° C., H460 cells (ATCC) were adherently cultured to logarithmic growth phase in RPMI1640 medium containing 10% FBS in cell culture flask in 5% CO2 incubator.

B1: NCPT-1.M1: MG+His6+NCPT-1 fusion protein, SEQ ID NO: 5 (protein)
chain: MGHHHHHHTLSSPNSKNEKALGRKINSWESSRSGHSFLSNLHLRNGELVIHEKGFYYIYSQTYFRFQEEIKENTKNDKQMVQYIYKYTSYPDPILLMKSARNSCWSKDAEYGLYSIYQGGIFELKENDRIFVSVTNEHLIDMDHEASFFGAFLVGGGGGGRVAAHITGTRGRSNT
modifications: NCPT-1.M1 polypeptide sequence
[1]
  morphological features of apoptosis (MGG staining): obvious features of apoptosis were observed
H460 cells
  incubation time for appearance of morphological apoptosis changes: 1-2 h
  incubation time resulting in apoptosis of maximum number of cells: 6 h
